Legend:
[1] = biological target: S. cerevisiae RPA-SSL heterotrimer (Rfa1-F11S, I14S, F15L; Rfa2; Rfa3) (S. cerevisiae) (UniProt P22336)
[2] = biological target: S. cerevisiae replication protein A (RPA), wild type heterotrimer (Rfa1, Rfa2, Rfa3) (S. cerevisiae) (UniProt P22336)
S. cerevisiae replication protein A (RPA), wild type heterotrimer (Rfa1, Rfa2, Rfa3) (S. cerevisiae), sequence (P22336 whole entry, chain 1 of 3): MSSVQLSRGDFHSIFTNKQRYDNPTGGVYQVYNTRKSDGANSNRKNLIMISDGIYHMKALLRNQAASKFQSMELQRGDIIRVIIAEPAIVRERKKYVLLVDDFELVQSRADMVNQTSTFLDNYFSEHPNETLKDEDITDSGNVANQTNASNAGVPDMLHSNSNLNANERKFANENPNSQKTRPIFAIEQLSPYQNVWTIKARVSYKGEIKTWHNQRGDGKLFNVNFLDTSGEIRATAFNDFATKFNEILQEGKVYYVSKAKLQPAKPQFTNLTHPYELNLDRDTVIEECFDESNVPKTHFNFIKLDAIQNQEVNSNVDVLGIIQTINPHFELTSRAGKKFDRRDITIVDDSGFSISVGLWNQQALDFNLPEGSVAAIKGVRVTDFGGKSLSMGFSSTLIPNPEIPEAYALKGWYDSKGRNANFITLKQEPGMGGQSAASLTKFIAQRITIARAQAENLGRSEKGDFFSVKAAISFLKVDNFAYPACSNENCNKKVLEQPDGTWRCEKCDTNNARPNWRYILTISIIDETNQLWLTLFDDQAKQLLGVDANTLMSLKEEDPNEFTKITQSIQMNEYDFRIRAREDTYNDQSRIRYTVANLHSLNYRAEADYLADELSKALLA
S. cerevisiae replication protein A (RPA), wild type heterotrimer (Rfa1, Rfa2, Rfa3) (S. cerevisiae), sequence (P26754 whole entry, chain 2 of 3, further chain): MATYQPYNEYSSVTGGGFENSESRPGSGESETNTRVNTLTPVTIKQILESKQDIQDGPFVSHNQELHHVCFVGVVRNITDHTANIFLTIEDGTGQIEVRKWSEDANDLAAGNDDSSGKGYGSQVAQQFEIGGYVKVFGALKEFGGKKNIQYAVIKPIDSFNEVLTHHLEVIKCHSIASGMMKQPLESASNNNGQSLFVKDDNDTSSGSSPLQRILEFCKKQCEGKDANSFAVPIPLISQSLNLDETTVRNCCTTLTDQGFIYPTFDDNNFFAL
S. cerevisiae replication protein A (RPA), wild type heterotrimer (Rfa1, Rfa2, Rfa3) (S. cerevisiae), sequence (P26755 whole entry, chain 3 of 3, further chain): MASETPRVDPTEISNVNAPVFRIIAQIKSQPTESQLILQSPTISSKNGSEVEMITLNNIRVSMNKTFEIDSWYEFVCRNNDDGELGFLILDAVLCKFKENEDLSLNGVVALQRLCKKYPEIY

S. cerevisiae RPA-SSL heterotrimer (Rfa1-F11S, I14S, F15L; Rfa2; Rfa3) (S. cerevisiae), sequence (P22336 whole entry F11S/I14S/F15L, chain 1 of 3): as the sequence (P22336 whole entry, chain 1 of 3) above, with F11S, I14S, F15L counted along it
S. cerevisiae RPA-SSL heterotrimer (Rfa1-F11S, I14S, F15L; Rfa2; Rfa3) (S. cerevisiae), sequence (P26754 whole entry, chain 2 of 3, further chain): as the sequence (P26754 whole entry, chain 2 of 3, further chain) above
S. cerevisiae RPA-SSL heterotrimer (Rfa1-F11S, I14S, F15L; Rfa2; Rfa3) (S. cerevisiae), sequence (P26755 whole entry, chain 3 of 3, further chain): as the sequence (P26755 whole entry, chain 3 of 3, further chain) above

- ATPase activity (apparent kcat) of Dna2-E675A with ssDNA, stimulation by the RPA variant (48 nM) [1]: 2 fold
- ATPase activity (apparent kcat) of Dna2-E675A with ssDNA, stimulation by the RPA variant (48 nM) [2]: 2 fold
Substance: S. cerevisiae Dna2-E675A (nuclease-dead) (from UniProt P38859 1-1522) (enzyme)

Reference: paper PMC8586334
